In the supplement of paper PMC10567573:

B1: NP_116010.1 (parent)
chain: HSLRAVSTDPPHHDHHDEFCLMP

What was measured:
[1] = variants of: B1; assay: protein stability index of a GFP-peptide fusion (GPS, HEK-293T) (PSI 1-6); higher = more stable; details: c terminus: native
[2] = variants of: B1; assay: as above; details: c terminus: native; remark: listed apart in the source

## HSLRAVSTDPPHFDHHDEFCLMP
[1]
  protein stability index: 2.24
[2]
  protein stability index: 3.29

## HSLRAVSTDPPHCDHHDEFCLMP
[1]
  protein stability index: 2.58
[2]
  protein stability index: 2.89

## HSLRAVSTDPPHDDHHDEFCLMP
[1]
  protein stability index: 3.07
[2]
  protein stability index: 2.18

## HSLRAVSTDPPHADHHDEFCLMP
[1]
  protein stability index: 2.31
[2]
  protein stability index: 2.86

## HSLRAVSTDPPHEDHHDEFCLMP
[1]
  protein stability index: 3
[2]
  protein stability index: 2.37

## HSLRAVYTDPPHHDHHDEFCLMP
[1]
  protein stability index: 2.31
[2]
  protein stability index: 2.02

## HSLRAVLTDPPHHDHHDEFCLMP
[1]
  protein stability index: 2.08

## HSLRAVQTDPPHHDHHDEFCLMP
[1]
  protein stability index: 2.58
[2]
  protein stability index: 3.14

## HSLRAVMTDPPHHDHHDEFCLMP
[1]
  protein stability index: 2.74
[2]
  protein stability index: 2.65

## HSLRAVWTDPPHHDHHDEFCLMP
[1]
  protein stability index: 2.31
[2]
  protein stability index: 3.98

## HSLRAVRTDPPHHDHHDEFCLMP
[1]
  protein stability index: 2.36
[2]
  protein stability index: 1.88

## HSLRAVNTDPPHHDHHDEFCLMP
[1]
  protein stability index: 2.27
[2]
  protein stability index: 2.64

## HSLRAVVTDPPHHDHHDEFCLMP
[1]
  protein stability index: 2.39
[2]
  protein stability index: 2.7

## HSLRAVITDPPHHDHHDEFCLMP
[1]
  protein stability index: 2.4
[2]
  protein stability index: 2.93

## HSLRAVTTDPPHHDHHDEFCLMP
[1]
  protein stability index: 2.33
[2]
  protein stability index: 3.06

## HSLRAVSTSPPHHDHHDEFCLMP
[1]
  protein stability index: 2.44
[2]
  protein stability index: 3.56

## HSLRAVSTEPPHHDHHDEFCLMP
[1]
  protein stability index: 2.48
[2]
  protein stability index: 1.95

## HSLRAVSTKPPHHDHHDEFCLMP
[1]
  protein stability index: 2.44
[2]
  protein stability index: 1.84

## HSLRAVSTYPPHHDHHDEFCLMP
[1]
  protein stability index: 2.37
[2]
  protein stability index: 2.37

## HSLRAVSTCPPHHDHHDEFCLMP
[1]
  protein stability index: 2.45
[2]
  protein stability index: 3.11

## HSLRAVSTNPPHHDHHDEFCLMP
[1]
  protein stability index: 2.38
[2]
  protein stability index: 1.93

## HSLRAVSTWPPHHDHHDEFCLMP
[1]
  protein stability index: 2.52
[2]
  protein stability index: 1.81

## HSLRAVSTRPPHHDHHDEFCLMP
[1]
  protein stability index: 2.2

## HSLRAVSTGPPHHDHHDEFCLMP
[1]
  protein stability index: 2.42
[2]
  protein stability index: 3.24

## HSLRAVSTFPPHHDHHDEFCLMP
[1]
  protein stability index: 2.44
[2]
  protein stability index: 3.37

## HSLRAVSTMPPHHDHHDEFCLMP
[1]
  protein stability index: 2.23
[2]
  protein stability index: 2.04

## HSLRAVSTVPPHHDHHDEFCLMP
[1]
  protein stability index: 2.11
[2]
  protein stability index: 1.94

## HSLRAVSMDPPHHDHHDEFCLMP
[1]
  protein stability index: 2.48
[2]
  protein stability index: 2.27

## HSLRAVSVDPPHHDHHDEFCLMP
[1]
  protein stability index: 2.26
[2]
  protein stability index: 2.82

## HSLRAVSFDPPHHDHHDEFCLMP
[1]
  protein stability index: 2.38
[2]
  protein stability index: 1.87

## HSLRAVSHDPPHHDHHDEFCLMP
[1]
  protein stability index: 2.48
[2]
  protein stability index: 1.79

## HSLRAVSADPPHHDHHDEFCLMP
[1]
  protein stability index: 2.75
[2]
  protein stability index: 4.04

## HSLRAVSIDPPHHDHHDEFCLMP
[1]
  protein stability index: 2.59
[2]
  protein stability index: 2.13

## HSLRAVSKDPPHHDHHDEFCLMP
[1]
  protein stability index: 2.28
[2]
  protein stability index: 2.99

## HSLRAVSRDPPHHDHHDEFCLMP
[1]
  protein stability index: 2.33
[2]
  protein stability index: 3.01

## HSLRAVSYDPPHHDHHDEFCLMP
[1]
  protein stability index: 2.54
[2]
  protein stability index: 2.14

## HSLRAVSCDPPHHDHHDEFCLMP
[1]
  protein stability index: 2.93
[2]
  protein stability index: 2.64

## HSLRAVSLDPPHHDHHDEFCLMP
[1]
  protein stability index: 2.36
[2]
  protein stability index: 2.95

## HSLRAVSDDPPHHDHHDEFCLMP
[1]
  protein stability index: 2.53
[2]
  protein stability index: 2.23

## HSLRAVSSDPPHHDHHDEFCLMP
[1]
  protein stability index: 2.13
[2]
  protein stability index: 2.85

## HSLRAVSGDPPHHDHHDEFCLMP
[1]
  protein stability index: 2.68
[2]
  protein stability index: 2.59

## HSLRAVSQDPPHHDHHDEFCLMP
[1]
  protein stability index: 2.46
[2]
  protein stability index: 2.69

## HSLRAVSNDPPHHDHHDEFCLMP
[1]
  protein stability index: 2.36
[2]
  protein stability index: 2.4

## HSLRAVSEDPPHHDHHDEFCLMP
[1]
  protein stability index: 2.45
[2]
  protein stability index: 2.89

## HSLRAVSWDPPHHDHHDEFCLMP
[1]
  protein stability index: 1.99
[2]
  protein stability index: 2.87

## HSLRAVSTDPPMHDHHDEFCLMP
[1]
  protein stability index: 2.52
[2]
  protein stability index: 2.12

## HSLRAVSTDPPAHDHHDEFCLMP
[1]
  protein stability index: 2.44
[2]
  protein stability index: 1.65

## HSLRAVSTDPPYHDHHDEFCLMP
[1]
  protein stability index: 2.46
[2]
  protein stability index: 2.19

## HSLRAVSTDPPFHDHHDEFCLMP
[1]
  protein stability index: 2.62
[2]
  protein stability index: 2.49

## HSLRAVSTDPPCHDHHDEFCLMP
[1]
  protein stability index: 2.37
[2]
  protein stability index: 2.4

## HSLRAVSTDPPSHDHHDEFCLMP
[1]
  protein stability index: 2.8
[2]
  protein stability index: 2.33

## HSLRAVSTDPPIHDHHDEFCLMP
[1]
  protein stability index: 2.53
[2]
  protein stability index: 1.98

## HSLRAVSTDPPWHDHHDEFCLMP
[1]
  protein stability index: 2.27
[2]
  protein stability index: 3.29

## HSLRAVSTDPPKHDHHDEFCLMP
[1]
  protein stability index: 2.87
[2]
  protein stability index: 3.08

## HSLRAVSTDPPQHDHHDEFCLMP
[1]
  protein stability index: 2.69
[2]
  protein stability index: 2.12

## HSLRAVSTDPPNHDHHDEFCLMP
[1]
  protein stability index: 2.58
[2]
  protein stability index: 2.79

## HSLRAVSTDPPLHDHHDEFCLMP
[1]
  protein stability index: 2.79
[2]
  protein stability index: 2.83

## HSLRAVSTDPPDHDHHDEFCLMP
[1]
  protein stability index: 2.73
[2]
  protein stability index: 2.2

## HSLRAVSTDPPEHDHHDEFCLMP
[1]
  protein stability index: 2.87
[2]
  protein stability index: 2.75

## HSLRAVSTDPPRHDHHDEFCLMP
[1]
  protein stability index: 2.32
[2]
  protein stability index: 2.76

## HSLRAVSTDPPGHDHHDEFCLMP
[1]
  protein stability index: 2.68
[2]
  protein stability index: 2.16

## HSLRAVSTDPPVHDHHDEFCLMP
[1]
  protein stability index: 2.73
[2]
  protein stability index: 2.67

## HSLRAVSTDIPHHDHHDEFCLMP
[1]
  protein stability index: 2.48
[2]
  protein stability index: 3.15

## HSLRAVSTDEPHHDHHDEFCLMP
[1]
  protein stability index: 2.77
[2]
  protein stability index: 2.47

## HSLRAVSTDTPHHDHHDEFCLMP
[1]
  protein stability index: 2.56
[2]
  protein stability index: 2.11

## HSLRAVSTDLPHHDHHDEFCLMP
[1]
  protein stability index: 2.43
[2]
  protein stability index: 3.21

## HSLRAVSTDQPHHDHHDEFCLMP
[1]
  protein stability index: 2.56
[2]
  protein stability index: 2.28

## HSLRAVSTDYPHHDHHDEFCLMP
[1]
  protein stability index: 2.4
[2]
  protein stability index: 2.47

## HSLRAVSTDKPHHDHHDEFCLMP
[1]
  protein stability index: 2.58
[2]
  protein stability index: 1.43

## HSLRAVSTDSPHHDHHDEFCLMP
[1]
  protein stability index: 2.03
[2]
  protein stability index: 2.05

## HSLRAVSTDFPHHDHHDEFCLMP
[1]
  protein stability index: 2.67

## HSLRAVSTDMPHHDHHDEFCLMP
[1]
  protein stability index: 2.47
[2]
  protein stability index: 2.82

## HSLRAVSTDGPHHDHHDEFCLMP
[1]
  protein stability index: 2.46
[2]
  protein stability index: 1.84

## HSLRAVSTDNPHHDHHDEFCLMP
[1]
  protein stability index: 2.27
[2]
  protein stability index: 1.91

## HSLRAVSTDRPHHDHHDEFCLMP
[1]
  protein stability index: 2.26
[2]
  protein stability index: 3.17

## HSLRAVSTDCPHHDHHDEFCLMP
[1]
  protein stability index: 2.29
[2]
  protein stability index: 2.09

## HSLRAVSTDAPHHDHHDEFCLMP
[1]
  protein stability index: 2.38
[2]
  protein stability index: 2.39

## HSLRAVSTDWPHHDHHDEFCLMP
[1]
  protein stability index: 2.37
[2]
  protein stability index: 2.88

## HSLRAVSTDVPHHDHHDEFCLMP
[1]
  protein stability index: 2.29
[2]
  protein stability index: 2.25

## HSLRAVSTDDPHHDHHDEFCLMP
[1]
  protein stability index: 2.88

## HSLRAVSTDHPHHDHHDEFCLMP
[1]
  protein stability index: 2.43
[2]
  protein stability index: 2.57

## HSLRAVSTDPGHHDHHDEFCLMP
[1]
  protein stability index: 2.59
[2]
  protein stability index: 2.46

## HSLRAVSTDPQHHDHHDEFCLMP
[1]
  protein stability index: 2.56
[2]
  protein stability index: 1.99

## HSLRAVSTDPFHHDHHDEFCLMP
[1]
  protein stability index: 2.44
[2]
  protein stability index: 1.5

## HSLRAVSTDPAHHDHHDEFCLMP
[1]
  protein stability index: 2.67
[2]
  protein stability index: 2.67

## HSLRAVSTDPVHHDHHDEFCLMP
[1]
  protein stability index: 2.21
[2]
  protein stability index: 1.74

## HSLRAVSTDPLHHDHHDEFCLMP
[1]
  protein stability index: 2.55
[2]
  protein stability index: 4.46

## HSLRAVSTDPRHHDHHDEFCLMP
[1]
  protein stability index: 2.42
[2]
  protein stability index: 2.66

## HSLRAVSTDPEHHDHHDEFCLMP
[1]
  protein stability index: 2.72
[2]
  protein stability index: 2.81

## HSLRAVSTDPSHHDHHDEFCLMP
[1]
  protein stability index: 2.34
[2]
  protein stability index: 2.58

## HSLRAVSTDPKHHDHHDEFCLMP
[1]
  protein stability index: 2.65
[2]
  protein stability index: 2.58

## HSLRAVSTDPMHHDHHDEFCLMP
[1]
  protein stability index: 2.71
[2]
  protein stability index: 2.95

## HSLRAVSTDPDHHDHHDEFCLMP
[1]
  protein stability index: 2.73
[2]
  protein stability index: 2.3

## HSLRAVSTDPTHHDHHDEFCLMP
[1]
  protein stability index: 2.24
[2]
  protein stability index: 1.9

## HSLRAVSTDPYHHDHHDEFCLMP
[1]
  protein stability index: 2.26
[2]
  protein stability index: 3.15

## HSLRAVSTDPIHHDHHDEFCLMP
[1]
  protein stability index: 2.58
[2]
  protein stability index: 2.28

## HSLRAVSTDPWHHDHHDEFCLMP
[1]
  protein stability index: 2.16
[2]
  protein stability index: 2.29

## HSLRAVSTDPCHHDHHDEFCLMP
[1]
  protein stability index: 2.44
[2]
  protein stability index: 1.57

## HSLRAVSTDPNHHDHHDEFCLMP
[1]
  protein stability index: 2.5
[2]
  protein stability index: 2.41
